From the supplement of paper PMC10126150
± gives the standard deviation of the averaged measurements.

System: ATP
Assay: switch fluorescence ratio, 500 uM ATP over buffer (Cy3 cluster intensity, sum of 5 cycles each) (fold (ratio)); higher = stronger signal-on switching upon ATP binding; sequences stand for … in TCGTCGGCAGCGTCAGATGTGTATAAGAGACAGTTTTTTTTTTTTTTTTTTTTTTTTT…TC
Conditions: aptamer strand: ATP DNA aptamer (quencher-CACCTGGGGGAGTATTGCGGAGGAAGG + anchor), 100 nM annealed; ATP concentration: 500 uM
Procedure, shortened: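 Values give the fluorescence ratio for each switch-domain sequence, averaged from per-cluster ratios of summed target-cycle to summed buffer-cycle Cy3 intensity. The Cy3-labelled switching-strand clusters sat on a modified Illumina MiSeq flow-cell, were annealed to 100 nM quencher-labelled ATP aptamer, and were imaged in selection buffer, then after 15 min with 500 uM ATP at 22 °C. Five cycles ran with NaOH stripping and re-annealing between them, and clusters outside 100-1000 RFU were excluded.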
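Further: ATP exposure 15 min at 22 °C before imaging.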

Sequence | switch fluorescence ratio
CAGGGGTTGT | 1.21 ± 0.31
CAGGGGTTTA | 1.03 ± 0.034
CAGGGTAACT | 1.04 ± 0.066
CAGGGTACGA | 1.05 ± 0.012
CAGGGTGAGA | 1.04 ± 0.016
CAGGGTGGGT | 1.02 ± 0.05
CAGGGTTAGG | 1.01 ± 0.026
CAGGTAAAGG | 1.01 ± 0.022
CAGGTAAGGA | 0.969 ± 0.01
CAGGTAGGAG | 0.985 ± 0.017
CAGGTATGTT | 1 ± 0.016
CAGGTCATTA | 0.9784 ± 0.0076
CAGGTGGTCA | 1 ± 0.021
CAGGTGTGGA | 1.044 ± 0.0053
CAGGTTAGGT | 1.004 ± 0.01
CAGGTTATGG | 0.958 ± 0.042
CAGGTTGCAC | 0.9894 ± 0.0069
CAGGTTTTGT | 1.01 ± 0.036
CAGTAAGTGG | 0.999 ± 0.02
CAGTAATTTT | 0.999 ± 0.013
CAGTACGGGG | 1 ± 0.01
CAGTAGCTGT | 1.204 ± 0.0022
CAGTCCGGGA | 1.101 ± 0.0079
CAGTCTGGGG | 0.964 ± 0.012
CAGTCTGTGT | 0.9921 ± 0.0075

Sequence | switch fluorescence ratio
CAGTGAGGTA | 0.984 ± 0.023
CAGTGATTC | 1.26 ± 0.35
CAGTGGAGTG | 0.98561 ± 8.7e-05
CAGTGGGGAC | 1.03 ± 0.055
CAGTGGGGCT | 1.016 ± 0.0057
CAGTGGTCGG | 1 ± 0.038
CAGTGTACGG | 1.04 ± 0.013
CAGTGTCGGG | 0.9984 ± 0.0085
CAGTGTCTGC | 0.9726 ± 0.0016
CAGTGTGGTT | 1.11 ± 0.24
CAGTGTGTGG | 0.9696 ± 0.0024
CAGTTAGACA | 0.99 ± 0.081
CAGTTATGAC | 0.987 ± 0.011
CAGTTCACCT | 1.082 ± 0.0063
CAGTTCGTTT | 0.9845 ± 0.0063
CAGTTGGGAC | 1 ± 0.054
CAGTTGTGTG | 0.994 ± 0.034
CAGTTGTTTT | 1.02 ± 0.034
CAGTTTAATG | 1.014 ± 0.0015
CAGTTTAGCT | 1.02 ± 0.015
CAGTTTGTGG | 0.9917 ± 0.0018
CAGTTTGTTG | 0.973 ± 0.037
CAGTTTTACA | 1.05 ± 0.016
CATAAAAACT | 1.06 ± 0.017
CATAAGGGGA | 0.994 ± 0.038

Sequence | switch fluorescence ratio
CATACAAGGG | 1.019 ± 0.0029
CATACAATGC | 2.02 ± 0.11
CATACACATT | 1.06 ± 0.048
CATACCCTTG | 1.01 ± 0.037
CATACGAAGT | 1.02 ± 0.068
CATACGGGTA | 1.042 ± 0.00018
CATACTAACG | 1.33 ± 0.062
CATAGATGGA | 1.03 ± 0.036
CATAGATGGG | 1.01 ± 0.015
CATAGCAAGG | 1.66 ± 0.099
CATAGGAACG | 0.955 ± 0.045
CATAGGATGG | 0.947 ± 0.025
CATAGGGGAC | 0.978 ± 0.066
CATAGGGGTA | 1.01 ± 0.04
CATAGGGTTT | 1.04 ± 0.047
CATAGGTACA | 1.089 ± 0.0035
CATAGGTCGG | 0.974 ± 0.021
CATAGGTTAT | 0.993 ± 0.048
CATATACATT | 1.056 ± 0.0039
CATATATTCT | 0.977 ± 0.033
CATATGATCG | 0.961 ± 0.025
CATATGGCTT | 1.02 ± 0.023
CATATGGGGA | 0.982 ± 0.011
CATATTGAAT | 1.01 ± 0.02
CATATTGGGA | 0.996 ± 0.032

Sequence | switch fluorescence ratio
CATCAAAAAT | 1.29 ± 0.3
CATCAAGGGA | 1.02 ± 0.045
CATCAGTTGA | 1.02 ± 0.018
CATCCACGTA | 1.2 ± 0.083
CATCCTTGGA | 0.996 ± 0.012
CATCGAGGAC | 1.06 ± 0.072
CATCGATTGC | 1.03 ± 0.013
CATCGGAGGA | 1.02 ± 0.025
CATCGGGGGG | 1 ± 0.02
CATCGGTATA | 1.06 ± 0.017
CATCTAAGGC | 1.07 ± 0.049
CATCTAGTGC | 1.045 ± 0.0031
CATCTATGGT | 0.992 ± 0.01
CATCTCCGGT | 1.13 ± 0.0087
CATCTGATGC | 1.08 ± 0.015
CATCTGATTA | 0.98832 ± 0.00039
CATCTTAGCT | 1.035 ± 0.0054
CATCTTTGAA | 1.05 ± 0.017
CATGAAAGAC | 1.05 ± 0.041
CATGATAGTT | 0.997 ± 0.017
CATGATTGCG | 0.985 ± 0.024
CATGATTTGA | 1.011 ± 0.0092
CATGCCATCC | 1.16 ± 0.051
CATGCCGGGA | 1.22 ± 0.38
CATGCGTCGA | 1.044 ± 0.0035
